B1: EPB41L3 (parent)
chain: GSKFRYSGRTQAQTRRASALIDRP

Variants of: B1
Experiment: protein stability index of a GFP-peptide fusion (GPS, HEK-293T) (PSI 1-6); higher = more stable
Conditions: c terminus: a fixed tail appended
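Further: lentivirally expressed fusions sorted by FACS into six bins by GFP to DsRed ratio, PSI derived from sequencing read proportions per bin multiplied by bin number.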

Protein stability index, by site and new letter:
L20: W 3.23; H 3.37; P 3.15; I 3.19; F 2.65; A 3.29
D22: P 3.09; R 3.45; M 2.69; N 2.82; W 2.72; K 2.7; S 3.11; F 3.4
Y6: F 2.96; E 4.13; R 4.23; D 4; K 4.13
R16: N 3.42; I 2.72; D 3.56; W 2.41; E 3.34; S 3.08; K 2.83
A19: M 3.07; P 2.68; K 3.39; Q 3.22; N 3.4; H 3.26; G 2.91; E 3.28
T14: R 3.44; M 2.29; C 1.88; N 3.72; K 3.44; L 2.7; H 2.77; Q 2.81; F 2.8; I 2.69; V 3.19
R15: C 2.06; N 3.68; Y 2.54; E 3.57; L 2.64; M 3.21; A 3.25; Q 2.9; W 2.45; G 2.81; F 2.44
G8: D 3.02; M 3.88; W 2.1; R 4.01; A 3.41; T 4.1; S 3.46; C 1.72
Q13: P 2.69; A 2.84; V 3.53; R 3.25; F 2.69; S 3.27; M 2.47; D 3.08
R9: P 3.87; H 2.93; W 2.33; M 2.85; F 2.81; A 2.88; Q 3.32; I 2.81; G 3.32; K 2.97; C 2.94; N 3.7
T10: F 2.68; L 3.1; N 3.19; W 1.82; P 3.74
K3: N 3.08; P 2.04; S 2.64; H 2.33; Q 2.96; R 2.83; E 2.19; D 2.5; F 2.34; T 2.74
G1: Y 1.85; F 2.12; K 3.33; L 2.53; H 3.03; C 2.88; Q 2.74; S 2.33; T 3.08
S7: A 2.91; R 3.73; Y 2.71; L 3.08; P 3.36; M 3.35; K 3.79; D 3.68
R23: D 3.44; Y 2.5; K 2.94; L 2.71; P 3.02; Q 3.12; F 2.69; G 3.01; E 3.32; I 2.11; C 2.89
P24: R 3.54; Y 2.78; A 2.57; M 3; Q 2.79; L 2.56
A12: C 3.32; R 3.42; P 3.17; N 3.08; I 3.07; S 3.41; H 2.82
I21: C 2.64; M 3.6; R 3.71; Q 3.06; V 3.2; N 3.95; D 3.58
Q11: A 2.86; D 3.09; H 2.85; E 3.29; P 3.46
S18: K 3.29; A 3.02; W 2.58; H 3.42; L 3.01; N 3.25
F4: W 2.86; M 3.48; D 4.17; R 4.42; C 3.4; H 3.83; Q 4.47; E 3.82; G 3.62
R5: W 2.62; S 3.8; H 3.1; N 3.23; F 2.89; K 2.73; Q 3.26; V 3.2; C 2.67; Y 2.82
A17: M 3.02; E 3.54; L 2.65; S 3.12; F 2.52; C 2.09; Q 3.58; I 3.25
S2: M 2.27; F 2.55; E 3.98; L 2.33; R 2.51; V 2.5; G 3.31; N 2.6

— the supplement of paper PMC10567573
